{"source": "the DeepSol protein solubility set", "data": [{"assay": "soluble on expression in E. coli; label from the status in PepcDB or PDB records", "values": [{"sequence": "GMEPLKVEKFATANRGNGLRAVTPLRPGELLFRSDPLAYTVCKGSRGVVCDRCLLGKEKLMRCSQCRVAKYCSAKCQKKAWPDHKRECKCLKSCKPRYPPDSVRLLGRVVFKLMDGAPSESEKLYSFYDLESNINKLTEDRKEGLRQLVMTFQHFMREEIQDASQLPPAFDLFEAFAKVICNSFTICNAEMQEVGVGLYPSISLLNHSCDPNCSIVFNGPHLLLRAVRDIEVGEELTICYLDMLMTSEERRKQLRDQYCFECDCFRCQTQDKDADMLTGDEQVWKEVQESLKKIEELKAHWKWEQVLAMCQAIISSNSERLPDINIYQLKVLDCAMDACINLGLLEEALFYGTRTMEPYRIFFPGSHPVRGVQVMKVGKLQLHQGMFPQAMKNLRLAFDIMRVTHGREHSLIEDLILLLEECDANIRAS", "soluble on expression in E. coli": "soluble"}, {"sequence": "GMEWQAEQAYNHLPPLPLDSKLAELAETLPILKACIPARAALAELKQAGELLPNQGLLINLLPLLEAQGSSEIENIVTTTDKLFQYAQEDSQADPMTKEALRYRTALYQCFTQLSNRPLCVTTALEICSTIKSVQMDVRKVPGTSLTNQATGEVIYTPPAGESVIRDLLSNWEAFLHNQDDVDPLIKMAMAHYQFEAIHPFIDGNGRTGRVLNILYLIDQQLLSAPILYLSRYIVAHKQDYYRLLLNVTTQQEWQPWIIFILNAVEQTAKWTTHKIAAARELIAHTTEYVRQQLPKIYSHELVQVIFEQPYCRIQNLVESGLAKRQTASVYLKQLCDIGVLEEVQSGKEKLFVHPKFVTLMTKDSNQFSRYAL", "soluble on expression in E. coli": "soluble"}, {"sequence": "GMLTENPVLQAIRQRRSIRRYTDEAVSDEAVRLILEAGIWAPSGLNNQPCRFLVIRADDPRCDILAAHTRYGHIVRGAKVIILVFLDREAMYNEVKDHQAAGAAVQNMLLAAHALQLGAVWLGEIINQAATLLPALALDPARLSFEAAIAAGHPAQNGSSSRRPLAELLLEEPFPQPE", "soluble on expression in E. coli": "soluble"}, {"sequence": "GMNDRKILVAYFSCSGVTKAVAEKLAAITGADLYEIKPEVPYTEADLDWNDKKSRSSVEMRDALSRPAISGTLFHPEKYEVLFVGFPVWWYIAPTIINTFLESYDFAGKIVVPFATSGGSGIGNCEKNLHKAYPDIVWKDGKLLNGQITRDLVTEWFEKIRL", "soluble on expression in E. coli": "soluble"}, {"sequence": "GMPHVHVSTDNSLLDIGLIHRTLSQDTDWAKDIPLALVQRAIDHSLCFGGFVDGRQVAFARVISDYATFAYLGDVFVLPEHRGRGYSKALMDAVMAHPDLQGLRRFSLATSDAHGLYARYGFTPPLFPQSLMERYVPGLYST", "soluble on expression in E. coli": "soluble"}, {"sequence": "GMPKANLEIIRSTYEGSASSNAKHLAEALSEKVEWTEAEGFPYGGTYIGVEAIMENVFSRLGSEWNDYKASVNMYHEVSGKDVIIAEGMYSGVYKDTGKSFEAEFVHVWQLENGKIVKFKQYVDSHLVREAMKS", "soluble on expression in E. coli": "soluble"}, {"sequence": "GMQLTSENYYSQEANKEYMSVSGYKDFAGTYGKMPCEFYGMEKLNGRWEDEKSTALLVGSYVDSYFEGSLDQFKKDNPEIFTQKGELKANFKQAEEIIARIERDEYFMKYMSGQKQVIMTGELFGAKWKIKMDSYIPGVAIVDLKVMASITDLKWVKDIGYLDFVRYWGYDIQGAVYQEIVRQNTGEKLPFFIAGATKQTEPDIRIIHVTDNYLQEALHMVEMNMPRILRVKNGEVEPDRCELCDCCRHNRVLKKPISIMDLTAGI", "soluble on expression in E. coli": "soluble"}, {"sequence": "GMSDPRTQPLEIRPLMISRVMEVDWADGHTSRLTFEHLRVECPCAECKGHTPDQAQIVTGKEHVSVVEVVPVGHYAVQLHFSDGHNTGIFTWEYLRRLDAE", "soluble on expression in E. coli": "soluble"}, {"sequence": "GMSDTVLTGLLDTVWQQFGRGTKDRHHPARHPTLATIGTDGPDLRTLVLRAASHAEATLEFHTDAASPKVAHIRRDARVAIHIWIPKASLQVRAKAIAKILPGDPNLFAQLPEAARMNYQGPVPGTPLPAEPDATPNRFTRLICHLSEIDVLHLTTPHQRAVYTAPDWRGIWVSP", "soluble on expression in E. coli": "soluble"}, {"sequence": "GMSNKKLIINADDFGYTPAVTQGIIEAHKRGVVTSTTALPTSPYFLEAMESARISAPTLAIGVHLTLTLNQAKPILPREMVPSLVDEAGYFWHQSIFEEKVNLEEVYNEWDAQIISFMKSGRRPDHIDSHHNVHGKNKKLLGVALALARKYQLPLRNASRSIETKDYLELYQDVRTPDEMLYQFYDKAISTETILQLLDMVVCSEGEVFEINCHPAFIDTILQNQSGYCMPRIREVEILTSQEVKEAIEERGILLANYESLAM", "soluble on expression in E. coli": "soluble"}, {"sequence": "GMSQRIGVIDMGTNTFHLLITDIVNDRPHTLVNEKSAVGLGKGGITKGFITEEAMDRALDTLKKFRVILDEHAVVHVIATGTSAVRSGSNKQVLIDRIKKEVNIDVEVIDGAREAELIFRGVQQAVPMEDHISLAMDIGGGSVEFIIGNKNEILWKQSFEIGGQRLIDRFHVHDPMREDDRVMMHNYFDEVLVPLEKAINTWRPTQLIGCSGTFDTLAEMNIQHHREKIALEKQTSYLLSLPDFNRLRKQLVASTRRERLAIAGMIELRADMVVVAICLIEHVLKLVSTNAITVSTYSLKEGVLYTMLDGVKVGS", "soluble on expression in E. coli": "soluble"}, {"sequence": "GMTKPKEPTALDLPMADPLPDETQKYFEICQEKLGMVPNVLKAYAFNVEKLNAFTAMYNDLMLGESQLSKLEREMIAVVVSSINKCFYCLVAHGAAVRQLSGDPQLGEMLVMNYRVAPLDARQRVMLDFAAKMTRASAEIEEADREVLRSHGFNDRDIWDIANVTGFFNMTNRVASATAMMPNAEYHGQFR", "soluble on expression in E. coli": "soluble"}, {"sequence": "GMTTEVKQSPRERLLEAAAALTYRDGVGIGVEALCKAAGVSKRSMYQLFESKDELLAASLKERSAAFVAKALPPADDGRSPRERILYVFERVESQAGAPDFQGCRYLAVQIELKDQAHPASRVAYQIKADLMAFFRSEAERGGASDPDLLARQLILVFDGASARAGIGADNLTGLIVPTLTTLLDAADMH", "soluble on expression in E. coli": "soluble"}, {"sequence": "GMTTKDISRPVCILGLGLIGGSLLRDLHAANHSVFGYNRSRSGAKSAVDEGFDVSADLEATLQRAAAEDALIVLAVPMTAIDSLLDAVHTHAPNNGFTDVVSVKTAVYDAVKARNMQHRYVGSHPMAGTANSGWSASMDGLFKRAVWVVTFDQLFDGTDINSTWISIWKDVVQMALAVGAEVVPSRVGPHDAAAARVSHLTHILAETLAIVGDNGGALSLSLAAGSYRDSTRVAGTDPGLVRAMCESNAGPLVKALDEALAILHEAREGLTAEQPNIEQLADNGYRSRIRYEARSGQRRAKESVSPTITSSRPVLRLHPGTPNWEKQLIHAETLGARIEVF", "soluble on expression in E. coli": "soluble"}, {"sequence": "GMTTTQPEAKDRISSLPVPDATQVPEGVRKLWAKAEANIGFVPNVFRAQAVNGEQFLAWWNYFNLLLNKEGYLTNAERELVAVVVSGVNRCLYCAVSHGAALREFLGDPQKADAVAVNWRHADLTEREQALAAYAEKLTRHPAEVTAADLEPLRAVGLDDHQIMELVQVIGMFNLTNRVSSALGFVPNPEYYRQAR", "soluble on expression in E. coli": "soluble"}, {"sequence": "GMYANKVKKIAAVHDLSGMGRVSLTVVIPILSSMGFQVCPLPTAVLSNHTQYPGFSFLDLTDEMPKIIAEWKKLEVQFDAIYTGYLGSPRQIQIVSDFIKDFRQPDSLIVADPVLGDNGRLYTNFDMEMVKEMRHLITKADVITPNLTELFYLLDEPYKADSTDEELKEYLRLLSDKGPQVVIITSVPVHDEPHKTSVYAYNRQGNRYWKVTCPYLPAHYPGTGDTFTSVITGSLMQGDSLPMALDRATQFILQGIRATFGYEYDNREGILLEKVLHNLDMPIQMASYELI", "soluble on expression in E. coli": "soluble"}, {"sequence": "GNDEIGELALAFNNLSKRVQEAQANTESEKRRLDSVITHMSDGIIATDRRGRIRIVNDMALKMLGMAKEDIIGYYMLSVLSLEDEFKLEEIQENNDSFLLDLNEEEGLIARVNFSTIVQETGFVTGYIAVLHD", "soluble on expression in E. coli": "not soluble"}, {"sequence": "GNHHHHHMMLIKKIEELKNSEIKDIIDKRIQEFKSFKNKSNEEWFKELCFCILTANFTAEGGIRIQKEIGDGFLTLPREELEEKLKNLGHRFYRKRAEYIVLARRFKNIKDIVESFENEKVAREFLVRNIKGIGYKEASHFLRNVGYDDVAIIDRHILRELYENNYIDEIPKTLSRRKYLEIENILRDIGEEVNLKLSELDLYIWYLRTGKVLK", "soluble on expression in E. coli": "soluble"}]}]}
